Test results as given in article PMC3150272, “Crystal Structure of Reovirus Attachment Protein σ1 in Complex with Sialylated Oligosaccharides” (PLoS Pathogens, 2011).

Molecular target: the molecule itself
Assay: crystal structure; crystals grown in 15% PEG200, 0.1 M MES pH 6.5; space group P2(1)2(1)2, one trimer in the asymmetric unit; soaked with 10 mM α-2,3-sialyllactose, α-2,6-sialyllactose or α-2,8-disialyllactose

B1: reovirus type 3 Dearing (T3D) attachment protein σ1, body and head domains (residues 170-455), Ile249 (domain or fragment)
chain: VTSAGAPLSIRNNRMTMGLNDGLTLSGNNLAIRLPGNTGLNIQNGGLQFRFNTDQFQIVNNNLTLKTTVFDSINSRIGAIEQSYVASAVTPLRLNSSTKVLDMLIDSSTLEINSSGQLTVRSTSPNLRYPIADVSGGIGMSPNYRFRQSMWIGIVSYSGSGLNWRVQVNSDIFIVDDYIHICLPAFDGFSIADGGDLSLNFVTGLLPPLLTGDTEPAFHNDVVTYGAQTVAIGLSSGGAPQYMSKNLWVEQWQDGVLRLRVEGGGSITHSNSKWPAMTVSYPRSFT
notes: The His6-tagged GCN4 trimerization domain was removed by trypsin before the final purification and crystallization; also called T3D σ1; reovirus attachment protein σ1; source: E. coli Rosetta 2 DE3, purified (Ni-IMAC, on-column trypsin digestion, Superdex-200 SEC); not shown: His6, N-terminal, cleaved; GCN4 trimerization domain (modified GCN4 leucine zipper), N-terminal, cleaved
- stoichiometry N: 3
